Biological target: Biotin-Lysozyme (hen) (UniProt P00698)
Test: flow
Details: scFv

Sequence of Biotin-Lysozyme (hen) (P00698 19-147): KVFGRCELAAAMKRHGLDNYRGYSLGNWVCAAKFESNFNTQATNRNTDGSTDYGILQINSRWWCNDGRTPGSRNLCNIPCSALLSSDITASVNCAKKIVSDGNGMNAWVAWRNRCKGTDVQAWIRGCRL

Kd | Substance
500 pM | scFv D1.3 (from UniProt P32781 19-87)
500 pM | scFv D1.3 (from UniProt P42212 1-238; P32781 19-87)
